How the values were obtained:
[1] = target: Bacillus halodurans trp RNA-binding attenuation protein (TRAP) (Bacillus halodurans); experiment: crystal structure; hanging drop vapor diffusion at 18°C, protein with 5-15 mM L-tryptophan; data at 120 K; ring oligomer built from the asymmetric unit and crystallographic symmetry
[2] = target: Bacillus halodurans trp RNA-binding attenuation protein (TRAP) (Bacillus halodurans); experiment: native MS; nanoflow electrospray, 100 mM ammonium acetate (pH 7.5), 10 µM L-tryptophan, protein 0.1–0.4 mg/ml
[3] = target: Bacillus stearothermophilus E71stop TRAP (Bacillus stearothermophilus); experiment: crystal structure; hanging drop vapor diffusion at 18°C, protein with 5-15 mM L-tryptophan; data at 120 K; ring oligomer built from the asymmetric unit and crystallographic symmetry
[4] = target: Bacillus stearothermophilus E71stop TRAP (Bacillus stearothermophilus); experiment: native MS; nanoflow electrospray, 100 mM ammonium acetate (pH 7.5), 10 µM L-tryptophan, protein 0.1–0.4 mg/ml
[5] = target: the molecule itself; experiment: crystal structure; hanging drop vapor diffusion at 18°C, protein with 5-15 mM L-tryptophan; data at 120 K; ring oligomer built from the asymmetric unit and crystallographic symmetry
[6] = target: the molecule itself; experiment: native MS; nanoflow electrospray, 100 mM ammonium acetate (pH 7.5), 10 µM L-tryptophan, protein 0.1–0.4 mg/ml

**Q.** What does the source list for “Bacillus halodurans trp RNA-binding attenuation protein (TRAP) (natural protein)”?
**A.** stoichiometry N [1]: 12 subunits; stoichiometry N [2]: 12 subunits

**Q.** For “Bacillus stearothermophilus E71stop TRAP (domain or fragment)”, which stoichiometry N [3] is on record?
**A.** 12 subunits

**Q.** And the stoichiometry N [4]?
**A.** 12 subunits

B1: Bacillus subtilis K71stop TRAP (domain or fragment, UniProt P19466 1-71, looked up)
chain: MNQKHSSDFVVIKAVEDGVNVIGLTRGTDTKFHHSEKLDKGEVIIAQFTEHTSAIKVRGEALIQTAYGEMK
notes: TRAP of Bacillus subtilis with the last four amino acids removed from the C-terminus (K71stop); Homo-12-mer; also called B. subtilis TRAP K71stop; mutant B. subtilis TRAP; source: QuikChange on a pET9a plasmid containing the wild type gene; produced and purified as described previously [10]; size-exclusion chromatography (Superdex 200); copies: 12
**Q.** For B1, which “stoichiometry N” value [5] is on record?
**A.** 12 subunits

B2: Bacillus stearothermophilus TRAP, wild type (natural protein, UniProt Q9X6J6 1-74, looked up)
chain: MYTNSDFVVIKALEDGVNVIGLTRGADTRFHHSEKLDKGEVLIAQFTEHTSAIKVRGKAYIQTRHGVIESEGKK
notes: Homo-11-mer; control of the native mass spectrometry; also called B. stearothermophilus TRAP; TRAP11; source: pET9a plasmid containing the wild type gene; produced and purified as described previously [10]; copies: 11
**Q.** With B2 as the molecule, how does the “stoichiometry N” value [6] read?
**A.** 11 subunits

B3: Bacillus subtilis V11L TRAP (natural protein, UniProt P19466 1-75, looked up)
chain: MNQKHSSDFVLIKAVEDGVNVIGLTRGTDTKFHHSEKLDKGEVIIAQFTEHTSAIKVRGEALIQTAYGEMKSEKK
notes: TRAP of Bacillus subtilis with the mutation Val11 to Leu; Homo-12-mer by native mass spectrometry; could not be crystallised; also called V11L mutant; B. subtilis V11L TRAP; source: QuikChange on a pET9a plasmid containing the wild type gene; produced and purified as described previously [10]; copies: 12
**Q.** Which “stoichiometry N” value [6] does the source give for B3 here?
**A.** 12 subunits

From paper PMC3184956, “How to Change the Oligomeric State of a Circular Protein Assembly: Switch from 11-Subunit to 12-Subunit TRAP Suggests a General Mechanism” (PLoS ONE, 2011)
